One data set deals with T1, CypD rotamase activity (Homo sapiens, UniProt P30405).
T1 construct: made in house; host or cells: E. coli (pMK12-GST-huCypD)
Briefly: Rotamase (peptidylprolyl cis-trans isomerase) solvent jump assay. Format: biochemical. The note with it: relative to reactions without added enzyme; FIG. 12, 13. The method, then: Cyclophilin binding to ANT present in the SMP was determined using soluble recombinant GST-cyclophilin D (see Example 10, above). Rotamase (peptidylprolyl cis-trans isomerase) activity of the GST-CypD preparation was determined according to the “solvent jump” method of Kofron et al. (1991 Biochemistry 30: 6127-6134). Briefly, Ala-Ala-cis/trans-Pro-Phe-pNa was used as the rotamase substrate, coupled with α-chymotrypsin cleavage of all trans-Pro containing peptide to yield p-nitroanilide, detected by absorbance at 390 nm.

Data set [1] concerns the target T2, His-tagged huANT3 : CypD-GST interaction (Homo sapiens, UniProt P30405).
T2 construct: made in house; host or cells: His-huANT3: Trichoplusia ni cells infected with baculovirus (pMK4B-huANT3); GST-huCypD: E. coli (pMK12-GST-huCypD)
Kind of data set: Nickel bead immunoassay of huANT3:huCypD interaction (Western, anti-GST). Format: binding.
Protocol: Each portion was suspended in 1 ml of MSB with protease inhibitors (leupeptin, final concentration 10 ug/ml; pepstatin, final concentration 10 ug/ml; aprotinin, final concentration, 2 ug/ml; phenylmethylsulfonyl fluoride {PMSF}, final concentration, 100 μM; all from Sigma Chemical Co., St Louis, Mo.). The resuspended cell suspensions were frozen and thawed twice, then homogenized using a rotating teflon-coated probe and a close-fitting glass container (10 passes). The cellular homogenate was centrifuged (3,700 rpm, approximately 1,500×g) at 4° C. for 5 minutes; this supernatant from the first spin was saved. The pellet was washed with about 500 μl of MSB with protease inhibitors, centrifuged (3,800 rpm, approximately 1,600×g) at 4° C. for 5 minutes, and supernatant from this spin was combined with the supernatant from the first spin. The combined supernatant was centrifuged (14,000 rpm, approximately 20,800×g) at 4° C. for 15 minutes, and the pellet was resuspended in 300 μl of a 1:1 solution of (a) 20 mM MOPS and (b) MSB, wherein both (a) and (b) contain the previously described protease inhibitors. The resultant suspension was frozen and thawed three times.
One hundred (100) μl of T. ni mitochondria (9.83 μg/ml) was thawed slowly on ice and then centrifuged at 4° C. for 15 minutes to pellet mitochondria. […]
The extracts were evaluated by Western analysis. […]

In data set [2] the target is T3, ANT present in the SMP (recombinant human ANT3) (Homo sapiens, UniProt P30405).
T3 construct: made in house; host or cells: His-huANT3: submitochondrial particles of baculovirus-infected Trichoplusia ni cells; GST-huCypD: E. coli
T3 sequence (P30405 30-207): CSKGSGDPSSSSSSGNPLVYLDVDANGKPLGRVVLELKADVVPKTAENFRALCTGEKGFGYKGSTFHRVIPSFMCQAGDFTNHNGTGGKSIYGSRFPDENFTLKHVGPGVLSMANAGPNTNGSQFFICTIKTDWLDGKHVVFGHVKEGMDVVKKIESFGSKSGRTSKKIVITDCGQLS
Kind of data set: GST-CypD binding to submitochondrial particles (SMP) from T. ni cells expressing His-tagged huANT3. To be noted: 2.6 μM GST-CypD, 1 mg SMP; 0 hr, 3 hr, 6 hr; FIG. 11.
Protocol: SMP preparation was according to a modification of Halestrap et al. (1998 Biochim. Biophys. Acta 1366:79-94), and all steps were performed at 4° C. Starting material was one liter of cell culture, corresponding to 1×10^9 T. ni cells. Cells were pelleted by centrifugation and stored frozen at −20° C. For isolation of mitochondria, the cell pellet was thawed and resuspended in 15 ml of mitochondrial isolation buffer (MIB, all reagents from Sigma, St. Louis, Mo., unless otherwise noted): 0.22 M mannitol, 70 mM sucrose, 10 mM Hepes, 0.2 mM EDTA, 0.2 mM 2-mercaptoethanol (2-ME), pH 7.2 plus a standard protease inhibitor cocktail (Roche Molecular Biochemicals, Indianapolis, Ind.). The suspension was subjected to two freeze-thaw cycles by shell-freezing the container in a dry ice/ETOH bath and then thawing the suspension at room temperature, and was then diluted with 20 ml of MIB. The suspension was next homogenized with 10 strokes in a Potter-Elvehjem homogenizer (rheostat setting 28). The resulting homogenate was further diluted with MIB to a volume of approximately 200 ml and centrifuged at 600×g at 4° C. for 10 min. […] Protein concentration was measured using the Pierce BCA (Pierce Chemical Co., Rockford, Ill.) according to the manufacturer's instructions. […]

Data set [3] concerns the target T4, ANT/BR PLS (human ANT3 and bacteriorhodopsin) (Homo sapiens, UniProt P30405).
T4 construct: GST-huCypD: E. coli; Bacteriorhodopsin: purchased
Briefly: GST-CypD binding to proteoliposomes reconstituted with huANT3 and bacteriorhodopsin (ANT/BR PLS). To be noted: FIG. 14.
Protocol: Preformed liposomes were prepared by a freeze/thaw/sonication procedure. Briefly, egg-yolk lecithin (240 mg) was suspended in 3 ml of reconstitution buffer (50 mM NaCl, 10 mM HEPES, pH 7.4). The suspension was pulsed with argon stream to remove oxygen, partially frozen by contacting the vessel with a dry ice/ethanol bath, and sonicated as described above for SMP except the sonication period was for 1 min. The freeze/sonication step was repeated at least 3-4 times until clarification of lipid suspension was achieved.
Small EconoColumns™ (BioRad, Hercules, Calif.) were filled with 1.7 gm of SM-2 BioBeads™ (BioRad), washed with methanol followed by water, and equilibrated with the reconstitution buffer. […] Control (protein-free) liposomes were prepared in parallel by adding 0.5 ml of the elution buffer (50 mM NaCl, 1 mM EDTA, 10 mM Hepes, 1.3% Triton X-100™) to 200 μl of the liposome suspension. Each mixture was vortexed, applied to the BioBeads™ SM-2 column and passed through the column 5-6 times. Formation of proteoliposomes was visualized by apparent turbidity of the solution. Non-entrapped MUP or ATP was removed either during pelleting of the proteoliposomes by centrifugation, or by filtration of the proteoliposome suspension on a column of Sephadex™ G-50 (Pharmacia, Piscataway, N.J.).
Bacteriorhodopsin (BR) was co-reconstituted into the ANT liposomes as follows. […]

T1 sequence (P30405 30-207): as above
T2 sequence (P30405 30-207): as above
T4 sequence (P30405 30-207): as above

“Ek-CypD: CypD liberated from the polyHis fusion tag following enterokinase cleavage”: in the data set with CypD rotamase activity, the rotamase activity entry is “rotamase activity was also demonstrated”.

Regarding “GST-CypD: recombinant glutathione S-transferase-human cyclophilin D fusion protein expressed from pMK12-GST-huCypD”, the “amount of CypD-GST retained on beads” value in data set [1] (His-tagged huANT3 present (lanes 2', 3') versus absent (lane 1')) was “visibly increased by roughly an order of magnitude”. For the same substance, in data set [1] (summary statement), the “binding of CypD-GST to His-tagged ANT3 on a solid support” value is reported as “specifically binds”. Moreover, the rotamase activity result in the data set with CypD rotamase activity is reported as “readily apparent rotamase activity”. Also, the “GST-CypD in SMP pellet fractions” value in data set [2] is reported as “readily detectable”. The “binding of GST-CypD to ANT/BR PLS” value in data set [3] is “readily apparent”.

Turning to “His-CypD: recombinant polyHis-tagged human CypD fusion protein, purified on nickel columns or by FPLC”, the rotamase activity entry in the data set with CypD rotamase activity is reported as “rotamase activity was also demonstrated”.

The values above are taken from US6797467B1, “Compositions and methods for determining interactions of mitochondrial components, and for identifying agents that alter such interactions” (MitoKor, Inc., priority 1999, dated 2004).
